Target: the molecule itself
Test: atomic force microscopy

B1: UGT1A1 (sample observed by atomic force microscopy) (enzyme, human, UniProt P22309 26-533, looked up)
chain: HAGKILLIPVDGSHWLSMLGAIQQLQQRGHEIVVLAPDASLYIRDGAFYTLKTYPVPFQREDVKESFVSLGHNVFENDSFLQRVIKTYKKIKKDSAMLLSGCSHLLHNKELMASLAESSFDVMLTDPFLPCSPIVAQYLSLPTVFFLHALPCSLEFEATQCPNPFSYVPRPLSSHSDHMTFLQRVKNMLIAFSQNFLCDVVYSPYATLASEFLQREVTVQDLLSSASVWLFRSDFVKDYPRPIMPNMVFVGGINCLHQNPLSQEFEAYINASGEHGIVVFSLGSMVSEIPEKKAMAIADALGKIPQTVLWRYTGTRPSNLANNTILVKWLPQNDLLGHPMTRAFITHAGSHGVYESICNGVPMVMMPLFGDQMDNAKRMETKGAGVTLNVLEMTSEDLENALKAVINDKSYKENIMRLSSLHKDRPVEPLDLAVFWVEFVMRHKGAPHLRPAAHDLTWYQYHSLDVIGFLLAVVLTVAFITFKCCAYGYRKCLGKKGRVKKAHKSKTH
stoichiometry N: 2

Reference: paper PMC3973126 (Journal of Human Genetics, 2014)
